Among the data in PMC7515726 are fold decrease in binding vs wild-type nucleosome values, retold here.

What all share (test): affinity purification with mass spectrometry
The target in test [1] is Nuc3, disk patch 3 mutant nucleosome (hH3.2x10, hH4x24, hH2B.Cx9), biotinylated 185 bp 601 DNA (human) (UniProt P20671).
The target of test [2] is Nuc1, acidic patch mutant nucleosome (hH2A.Dx10), biotinylated 185 bp 601 DNA (human) (UniProt P62807).
Test [3] has as its target Nuc2, disk patch 2 mutant nucleosome (hH2A.Dx2, hH2B.Cx8), biotinylated 185 bp 601 DNA (human) (UniProt Q71DI3).

B1: RCC1 (regulator of chromatin condensation) (natural protein)
chain: MPPKRIAKRRSPPEDAIPKSKKVKVSHRSHNTEPGLVLTLGQGDVGQLGLGESVLERKKPALVPLLQDVVQAEAGGMHTVCLSQSGQVYSFGCNDEGALGRDTSVEGSEMVPGKVELQEKVVQVSAGDSHTAALTEDGRVFLWGSFRDNNGVIGLLEPMKKSMVPVQVQLDAPVVKVASGNDHLVMLTNDGDLYTLGCGEQGQLGRVPELFANRGGRQGLGRLLVPRCVLLKSRGTRGRVRFQDAFCGAYFTFAISREGHVYGFGLSNYHQLGTPGTGSCFIPQNLTSFKNSTKSWVGFSGGQHHTVCMDSEGKAYSLGRAEYGRLGLGEGAEEKSIPTLISRLPVVSSVACGASVGYAVSKDGRVFAWGMGTNYQLGTGQDEDAWSPVEMTGKQLENRVVLTVSSGGQHTVLLVKDQAQS
Regarding B1, the fold decrease in binding vs wild-type nucleosome in test [1] was 2.1 fold; in test [2], 22 fold; in test [3], 3.1 fold.

B2: OGT O-GlcNAc transferase (enzyme)
chain: MASSVGNVADSTEPTKRMLSFQGLAELAHREYQAGDFEAAERHCMQLWRQEPDNTGVLLLLSSIHFQCRRLDRSAHFSTLAIKQNPLLAEAYSNLGNVYKERGQLQEAIEHYRHALRLKPDFIDGYINLAAALVAAGDMEGAVQAYVSALQYNPDLYCVRSDLGNLLKALGRLEEAKACYLKAIETQPNFAVAWSNLGCVFNAQGEIWLAIHHFEKAVTLDPNFLDAYINLGNVLKEARIFDRAVAAYLRALSLSPNHAVVHGNLACVYYEQGLIDLAIDTYRRAIELQPHFPDAYCNLANALKEKGSVAEAEDCYNTALRLCPTHADSLNNLANIKREQGNIEEAVRLYRKALEVFPEFAAAHSNLASVLQQQGKLQEALMHYKEAIRISPTFADAYSNMGNTLKEMQDVQGALQCYTRAIQINPAFADAHSNLASIHKDSGNIPEAIASYRTALKLKPDFPDAYCNLAHCLQIVCDWTDYDERMKKLVSIVAEQLEKNRLPSVHPHHSMLYPLSHGFRKAIAERHGNLCLDKINVLHKPPYEHPKDLKLSDGRLRVGYVSSDFGNHPTSHLMQSIPGMHNPDKFEVFCYALSPDDGTNFRVKVMAEANHFIDLSQIPCNGKAADRIHQDGIHILVNMNGYTKGARNELFALRPAPIQAMWLGYPGTSGALFMDYIITDQETSPAEVAEQYSEKLAYMPHTFFIGDHANMFPHLKKKAVIDFKSNGHIYDNRIVLNGIDLKAFLDSLPDVKIVKMKCPDGGDNPDSSNTALNMPVIPMNTIAEAVIEMINRGQIQITINGFSISNGLATTQINNKAATGEEVPRTIIVTTRSQYGLPEDAIVYCNFNQLYKIDPSTLQMWANILKRVPNSVLWLLRFPAVGEPNIQQYAQNMGLPQNRIIFSPVAPKEEHVRRGQLADVCLDTPLCNGHTTGMDVLWAGTPMVTMPGETLASRVAASQLTCLGCLELIAKSRQEYEDIAVKLGTDLEYLKKIRGKVWKQRISSPLFNTKQYTMELERLYLQMWEHYAAGNKPDHMIKPVEVTESA
On to B2, for which, in test [2], the fold decrease in binding vs wild-type nucleosome turned out to be 1.69 fold.

B3: tyrosine-protein kinase BAZ1B (enzyme)
chain: MAPLLGRKPFPLVKPLPGEEPLFTIPHTQEAFRTREEYEARLERYSERIWTCKSTGSSQLTHKEAWEEEQEVAELLKEEFPNWYEKLVLEMVHHNTASLEKLVDSAWLEIMTKYAVGEECDFEVGKEKMLKVKIVKIHPLEKVDEEAVEKKSDGACDSPSSDKENSSQMAQDLQKKETVVKEDEGRRESINDRARRSPRKLPTSLKKGERKWAPPKFLPHKYDVKLQNEDKIISNVPADSLIRTERPPNKEILRYFIRHNALRAGTGENAPWVVEDELVKKYSLPSKFSDFLLDPYKYMTLNPSTKRRNTGSPDRKPSKKPKRDSSSLSSPLNPKLWCHVHLEKSLNGPPLKVKNSKNSKSPEEHLEGVMKIMSPNNNKLHSFHIPKKGPAAKKPGKHSDKPLKAKGRGKGILNGQKSTGNSKSPSKCVKTPKTKMKQMTLLDMAKGTQKMTRTPRSSGGVPRSSGKPHKHLPPAALHLIAYYKENKDKEDKKSALSCVISKTARLLSNEDRARLPEELRALVQKRYELLEHKKRWASMSEEQRKEYLKKKRQELKERLREKAKERREREMLERLEKQKRFEDQELGGRNLPAFRLVDTPEGLPNTLFGDVALVVEFLSCYSGLLLPDAQYPITAVSLMEALSADKGGFLYLNRVLVILLQTLLQDEIAEDYGELGMKLSEIPLTLHSVSELVRLCLRRCDVQEDSEGSETDDNKDSTPFEDNEVQDEFLEKLETSEFFELTSEEKLRILTALCHRILMTYSVQDHMETRQQVSAELWKERLAVLKEENDKKRAEKQKRKEMEARNKENGKEENVLGKVDRKKEIVKIEQQVEVEADDMISAVKSRRLLSMQAKRKREIQERETKVRLEREAEEERMRKHKAAAEKAFQEGIAKAKLVLRRTPIGTDRNHNRYWLFSNEVPGLFIEKGWVHNSIDYRFKHHRKDHSNLPDDDYCPRSKKANLGKNASVNAHHGPALEAVETTVPKQGQNLWFLCDSQKELDELLSCLHPQGIRESQLKERLEKRYQEITHSIYLARKPNLGLKSCDGNQELLNFLRSDLIEVATRLQKGGLGYMEGTSEFEARVISLEKLKDFGECVIALQASVIKKFLQGFMAPKQKKRKLQSEDSTKSEEVDEEKKMVEEAKVASALEKWKTAIREAQTFSRMHVLLGMLDACIKWDMSAENARCKVCRKKGEDDKLILCDECNKAFHLFCLRPALYEVPDGEWQCPACQPPTARRNSRGRNYTEESTSEGSEGDESGEEEEEEEEEEEEEEDYEVAGLRLRPRKTIRGKQSVIPAARPGRPPGKKSHPARRSRPKDDPEVDDLVLQTKRISRRQSLELQKCEDILHKLVKYRFSWPFREPVTRDEAEDYYDVIEHPMDFQTIQNKCSCGNYRSVQEFLTDMKQVFANAELYNCRGSHVLSCMEKTEQCLLALLQKHLPGHPYVRRKRRKFPDRLADDEGDSDSESVGQSRGRRQKK
B3 yielded a fold decrease in binding vs wild-type nucleosome in test [2] of 1.94 fold.

B4: cohesin complex protein SMC1A (natural protein)
chain: MGFLKLIEIENFKSYKGRQIIGPFQRFTAIIGPNGSGKSNLMDAISFVLGEKTSNLRVKTLRDLIHGAPVGKPAANRAFVSMVYSEEGAEDRTFARVIVGGSSEYKINNKVVQLHEYSEELEKLGILIKARNFLVFQGAVESIAMKNPKERTALFEEISRSGELAQEYDKRKKEMVKAEEDTQFNYHRKKNIAAERKEAKQEKEEADRYQRLKDEVVRAQVQLQLFKLYHNEVEIEKLNKELASKNKEIEKDKKRMDKVEDELKEKKKELGKMMREQQQIEKEIKEKDSELNQKRPQYIKAKENTSHKIKKLEAAKKSLQNAQKHYKKRKGDMDELEKEMLSVEKARQEFEERMEEESQSQGRDLTLEENQVKKYHRLKEEASKRAATLAQELEKFNRDQKADQDRLDLEERKKVETEAKIKQKLREIEENQKRIEKLEEYITTSKQSLEEQKKLEGELTEEVEMAKRRIDEINKELNQVMEQLGDARIDRQESSRQQRKAEIMESIKRLYPGSVYGRLIDLCQPTQKKYQIAVTKVLGKNMDAIIVDSEKTGRDCIQYIKEQRGEPETFLPLDYLEVKPTDEKLRELKGAKLVIDVIRYEPPHIKKALQYACGNALVCDNVEDARRIAFGGHQRHKTVALDGTLFQKSGVISGGASDLKAKARRWDEKAVDKLKEKKERLTEELKEQMKAKRKEAELRQVQSQAHGLQMRLKYSQSDLEQTKTRHLALNLQEKSKLESELANFGPRINDIKRIIQSREREMKDLKEKMNQVEDEVFEEFCREIGVRNIREFEEEKVKRQNEIAKKRLEFENQKTRLGIQLDFEKNQLKEDQDKVHMWEQTVKKDENEIEKLKKEEQRHMKIIDETMAQLQDLKNQHLAKKSEVNDKNHEMEEIRKKLGGANKEMTHLQKEVTAIETKLEQKRSDRHNLLQACKMQDIKLPLSKGTMDDISQEEGSSQGEESVSGSQRTSSIYAREALIEIDYGDLCEDLKDAQAEEEIKQEMNTLQQKLNEQQSVLQRIAAPNMKAMEKLESVRDKFQETSDEFEAARKRAKKAKQAFEQIKKERFDRFNACFESVATNIDEIYKALSRNSSAQAFLGPENPEEPYLDGINYNCVAPGKRFRPMDNLSGGEKTVAALALLFAIHSYKPAPFFVLDEIDAALDNTNIGKVANYIKEQSTCNFQAIVISLKEEFYTKAESLIGVYPEQGDCVISKVLTFDLTKYPDANPNPNEQ
The molecule B4 yielded a fold decrease in binding vs wild-type nucleosome in test [2] of 1.35 fold.

B5: VRK1 kinase (enzyme)
chain: MPRVKAAQAGRPGPAKRRLAEQFAAGEVLTDMSRKEWKLGLPIGQGGFGCIYLADTNSSKPVGSDAPCVVKVEPSDNGPLFTELKFYQRAAKPEQIQKWIRTHKLKYLGVPKYWGSGLHDKNGKSYRFMIMDRFGSDLQKIYEANAKRFSRKTVLQLSLRILDILEYIHEHEYVHGDIKASNLLLSHKNPDQVYLVDYGLAYRYCPDGVHKEYKEDPKRCHDGTLEFTSIDAHKGVAPSRRGDLEILGYCMIQWLSGCLPWEDNLKDPNYVRDSKIRYRDNVAALMEKCFPEKNKPGEIAKYMESVKLLEYTEKPLYQNLRDILLQGLKAIGSKDDGKLDFSAVENGSVKTRPASKKRKKEAEESAVCAVEDMECSDTQVQEAAQTRSVESQGAIHGSMSQPAAGCSSSDSSRRQQHLGLEQDMLRLDRRGSRTRKKAQK
B5 had a fold decrease in binding vs wild-type nucleosome in test [2] of 1.61 fold.
